The data set can be described thus: soluble on expression in E. coli; label from the status in PepcDB or PDB records.
As to “KVSSQSEDSSIKLIQITDTHLFAAEDGSLLSVNTADSFAAVVAAIGEEQVEFDAILATGDISQDHTPESYQRFVRGIQPLKKACYWLPGNHDYKPSMHSVLPTQQIQAVEHVLLGEHWQVVLLDSQVVGVPHGKLSEQQLQLLDNKLTEYPERHTLVLLHHHPLLVGSAWLDQHTLKESERFWDVVAKHSNVKAILCGHVHQDMDRIHLGARVMATPSTCVQFKPNSQDFALDNCSPGWRELTLHADGQVSTQVKRLKQGRFLPDFNSNGY”, the “soluble on expression in E. coli” value was “soluble”.
On to “KVVAKGLGLSKAYVGQKSSFTVDCSKAGNNMLLVGVHGPRTPCEEILVKHVGSRLYSVSYLLKDKGEYTLVVKWGHEHIPGSPYRVVVP”, for which the “soluble on expression in E. coli” value is recorded as “soluble”.
With “LAADQFIVDRPMPEDPYGKTIIAGYHWFSDWGRDTMISLPGLTISTGRPEVARSIIRTFARYVDQGMLPNRFPDAGEQPEYNTVDATLWYFEAVRAYYSATDDDTLLGELFPILADIIDWHCRGTRYNIHLDAADGLLYAGVTGVQLTWMDAKVDDWVVTPRIGKPIEVNALWYNALRTMAKFARHLGKPHQEYEAMADRAKYRFSRFWNDETGYCYDVLDSPNGDDAALRPNQIFAVSLPESPLTPAQQRSVVEVCGRRLLTSHGLRSLAPDHPQYQGKYGGNQYQRDGAYHQGTVWGWLLGPFVLAHLRVYKNPEQARQFLEPMANHLTKHGLGSLSEIFDGDAPMTARGCIAQAWTVAEVLRAWFATES”, the “soluble on expression in E. coli” value is listed as “not soluble”.
Turning to “LDFATLPPEINSARMYSGAGSAPMLAAASAWHGLSAELRASALSYSSVLSTLTGEEWHGPASASMTAAAAPYVAWMSVTAVRAEQAGAQAEAAAAAYEAAFAATVPPPVIEANRAQLMALIATNVLGQNAPAIAATEAQYAEMWSQDAMAMYGYAGASAAATQLTPFTEPVQTTNASGLAAQSAAIAHATGASAGAQQTTLSQLIAAIPSVLQGLSSSTAATFASGPSGLLGIVGSGSSWLDKLWALLDPNSNFWNTIASSGLFLPSNTIAPFLGLLGGVAAADAAGDVLGEATSGGLGGALVAPLGSAGGLGGTVAAGLGNAATVGTLSVPPSWTAAAPLASPLGSALGGTPMVAPPPAVAAGMPGMPFGTMGGQGFGRAVPQYGFRPNFVARPPAAG”, the “soluble on expression in E. coli” value is recorded as “not soluble”.
Consider “LDSKTLARRVLVAQMLATANNVYPTSQTFREKLANLYGAQFSTCISKKGKVHIVDIDISFVSDKFILEGKSILGEIIHFLRAALFKPLISVEHYQSKSFDLEKEN”, for which the “soluble on expression in E. coli” value was “not soluble”.
As to “LESALIEVNGKQQLRYEFLNDMLTQQNFQTNPIYAILHESIYCQDFASNWSAHRVRQTRPEFNYEPDQPFYFTGEMVFPWMFDQYVNLKPLKDAAEILAAKEDWAALYDQTQLAQNKVPVSCAVYADDMFVEMDISRETLALIPNSKAWITNEYEHNGLRADGERILDRLIAMGKQTAATLK”, the “soluble on expression in E. coli” value is recorded as “not soluble”.
For “LGSVKPATCEKPKFLEYKTCVGDLAVVIAKALDEFKEFCIVNAANEHMSHGGGVAKAIADFCGPDFVEYCADYVKKHGPQQKLVTPSFVKGIQCVNNVVGPRHGDSNLREKLVAAYKSVLVGGVVNYVVPVLSSGIFGVDFKISIDAMREAFKGCAIRVLLFSLSQEHIDYFDATCK” the value was “soluble”; for “LKQLLALDKNIERMECFDISHTQGEATVASCVVFDTEGPRPSEYRRFNIEGITPGDDYAAMEQAVTRRFKRLIDVQLLPDVLIIDGGKGQVSIVKRVLTSLGVEDITLLGVSKGPSRKAGWEKLILVNENREFVLPEDSKALHLLQHIRDEAHRFAI”, “not soluble”.
To “LKSLRCFWNVRFITLSMLPRYTAQMLRRFIPPMLSLWLLFASLAQANGTVDKIQIKGLDKGDDVEMMKNITVSLSLYSVVGKEQGEFRLEYLLSQAEFQTRQALEPFGYYAPTIRIDAPRQNDHITVVIYVDKGEPVRVRQAHVAMTGAAAQDHYLQRDLEDFKPKLGEIFNHPTYEASKVRITRRLAERGYFDADFTHRRVEVTRAAHAADIDLIWESGRRYDMGPVRFHYDYFHEGLFNPLVYWDEGSYFHEGKLDRLRESLTKLDYFSSIDIQPKPEEADPEGNVPVDVKLERAKSKIYTAGISYGSESGAGLRAGVERRYMNARGHKMNARLDYAQNLKSLTTAYQIPAFKWLDGWYIFFARAYDEQTKYIDLRNVKLSAARSGQINRHLTATASLNALRGRWRYRADDGTNTVAYQQSTLVYPQLEASYVDVDDATFPRNGSAATVLLRGGASALGSKSNFTQLHGQLRWFHGLGASSRLILRGEAGTTWASDLVAMPPSLRFFAGGVNSIRGYAFREVGPRTAKPDAFALGAKHVFSAGAEFEYYYKGGPFGGAVFVDSGSAFNRYPDWHTGVGIGLRYRSPVGPVRVDIARGLNSPDSKIQLYIDIGANL” belongs “soluble”; to “LKVGFFKRNLKEKIEAGRGVPNGIPAEDSEQLASGQEAGDPGCLKPLHEKDSESGGGKDG”, “soluble”.
Take “LLESRELVEKIVSILEEKKAKDLNIIDIREISILADYFVICSGTSTTHIKTLADEVEEKMLEAGIELLHKEGYNSARWILLDYGEVVVHIFHEEDRQFYNLERLWADGVMKHRQ”: the “soluble on expression in E. coli” value is given as “soluble”.
To “LLRGLLASIEHGINRVLRLDSTALPRLARLSGHVIAVDCRDPSLKIFILPSDEGLLLAADWAADADCTLRAPASSLLRLALSKDKTAVLHGPDVELEGDSGVLLELTGILQDLELDWEHELSNWVGPVASQLFSSRVRSSGRWTRESFTSLSQNVADYLSEESRTLVGNHEAEARFAELDRIKLDLDRLEARFARLAHFLNT” belongs “not soluble”.
For “LLTLSDIGLSVHRYSNRLDVFTQALEGGKALGDVSVDVYDDNGKVVAQGKTDSDGHARLPLPAKAAVVLAHKDEQTSMLRLNSSALDLAEFDISGPQAHPLQFFIFGPRDLYRPGETVLLNGLLRDSDGKNVKPQPITVEVRRPDDQVSRKFVWEADSSGFYQYQLQLAEEAPTGRWQLVFDLGDGKPQLYEFKVEDFLPERLALELKGSDAPVAPADNPEFDITGRYLYGAPASGNTLTGQVYVRPLREAVAKLPGYQFGSITE” the value was “not soluble”.
To “LLVVGPKFIRANQEYTLVISNFNSQLSKVDLLLKLEGETDNGLSVLNVTKMVDVRRNMNRMINFNMPEDLTAGNYKITIDGQRGFSFHKEAELVYLSKSISGLIQVDKPVFKPGDTVNFRVIVLDTELKPPARVKSVYVTIRDPQRNVIRKWSTAKLYAGVFESDLQIAPTPMLGVWNISVEVEGEELVSKTFEVKEYVLSTFDVQVMPSVIPLEEHQAVNLTIEANYHFGKPVQGVAKVELYLDDDKLKLKKELTVYGKGQVELRFDNFAMDADQQDVPVKVSFVEQYTNRTVVKQSQITVYRYAYRVELIKESPQFRPGLPFKCALQFTHHDGTPAKGISGKVEVSDVRFETTTTSDNDGLIKLELQPSEGTEQLSIHFNAVDGFFFYEDVNKVETVTDAYIKLELKSPIKRNKLMRFMVTCTERMTFFVYYVMSKGNIIDAGFMRPNKQPKYLLQLNATEKMIPRAKILIATVAGRTVVYDFADLAFQELRNNFDLSIDEQEIKPGRQIELSMSGRPGAYVGLAAYDKALLLFNKNHDLFWEDIGQVFDGFHAINENEFDIFHSLGLFARTLDDILFDSANEKTGRNALQSGKPIGKLVSYRTNFQESWLWKNVSIGRSGSRKLIEVVPDTTTSWYLTGFSIDPVYGLGIIKKPIQFTTVQPFYIVENLPYSIKRGEAVVLQFTLFNNLGAEYIADVTLYNVANQTEFVGRPNTDLSYTKSVSVPPKVGVPISFLIKARKLGEMAVRVKASIMLGHETDALEKVIRVMPESLVQPRMDTRFFCFDDHKNQTFPINLDINKKADSGSTKIEFRLNPNLLTTVIKNLDHLLGVPTGCGEQNMVKFVPNILVLDYLHAIGSKEQHLIDKATNLLRQGYQNQMRYRQTDGSFGLWETTNGSVFLTAFVGTSMQTAVKYISDIDAAMVEKALDWLASKQHFSGRFDKAGAEYHKEMQGGLRNGVALTSYVLMALLENDIAKAKHAEVIQKGMTYLSNQFGSINNAYDLSIATYAMMLNGHTMKEEALNKLIDMSFIDADKNERFWNTTNPIETTAYALLSFVMAEKYTDGIPVMNWLVNQRYVTGSFPSTQDTFVGLKALTKMAEKISPSRNDYTVQLKYKKSAKYFKINSEQIDVENFVDIPEDTKKLEINVGGIGFGLLEVVYQFNLNLVNFENRFQLDLEKQNTGSDYELRLKVCASYIPQLTDRRSNMALIEVTLPSGYVVDRNPISEQTKVNPIQKTEIRYGGTSVVLYYDNMGSERNCFTLTAYRRFKVALKRPAYVVVYDYYNTNLNAIKVYEVDKQNLCEICDEEDCPAECGGHHHHHH” belongs “soluble”.
As for “LPIQARPRRNRKNRAVRQLVQENLVKPSSLIYPLFVHDEETSVPIPSMPGQSRLSMEDLLKEVGEARSYGIKAFMLFPKVDDELKSVMAEESYNPDGLLPRAIMALKEAFPDVLLLADVALDPYSSMGHDGVVDEQSGKIVNDLTVHQLCKQAITLARAGADMVCPSDMMDGRVSAIRESLDMEGCTDTSILAYSCKYASSFYGPFRDALDSHMVGGTDKKTYQMDPSNSREAEREAEADASEGADMLMVKPGLPYLDVLAKIREKSKLPMVAYHVSGEYAMLKAAAEKGYISEKDTVLEVLKSFRRAGADAVATYYAKEAAKWMVEDMKGTQKFTEPCY”, the “soluble on expression in E. coli” value was “soluble”.
For “LPVPAGSRFEARVLGETRAMCCPGCQAVAEAIVAGGLESYYRHRSENAANPEALPKALSEELQLYDRPDVQGGFVRHEGELAETSLMIEGISCAACGWLIEKHLRQLPGVAEARLNLSNHRLHVRWQDSQLPLSQLLGELRQIGYAGHPYQPDRATERLAMENRR”, the “soluble on expression in E. coli” value is on record as “not soluble”.
To “LRARTYGEGGFRVERVLEERPAFTRVQFSYLSDGLRVHGFANLPKGRGPFPVVVVLHGYVEPSRYRLLAYTTPYADFLAERGYLVLHPNFRGHPPSEGAPAQGLRHVYAVDVLNLLAEVRRGAFPQADPARIALFGHSMGGGVAQIVSLVDPGLKGAVLYGSMSGDERRNLERIRYWSGGSRGQELFALSPEVLRQASAWTYLAELSVPYSVHHGTQDAQVPPEWSWELCRRLKALKKPVECFSYPGGHLFRGEVDRVFRERVLAFLGRVL” belongs “soluble”; to “LSDVLVPTAGGLSSDLSAAVAKALEETFGVAVSLLHVVDPGEEESGRQFMYEWAAEHGLSDAELRIETGDIEATIERLGRDYSLVIVGATERGLLSRIVRGSLVFDVIETLDTPVLLAERPSSRSLRERLFGRE”, “not soluble”.
To “LSEKEFFMSRAIKLAKLGWGKTNPNPLVGAVVVKDGKIIAEGYHKQLGGPHAEVEAFNNAKEDVAGGTLYVNLEPCSHYGRTPPCAQKIIDVGIKKVVAAIKDPNPKVSGRGFEMLKNAGIEVEVGVLEEEAIRLNEIFITYIVKKKPFVILKTAMTLDGKIATASGDSKWVTGEKARNHVHVIRDRVAAVMVGINTVLKDNPYLTTRLPDKEGSDPVRIVVDSKGSIPLDSNVINSNSKAGVILATTSRIDKEKEKMLIDKGVKIIKADGSDGRVDLKLLMDELYKLEIDSVLLEGGGTLNSSAISAGIVDKVMCFISPKIVGGENAPTSVEGIGALRMCEAIGVKNISVVKFGEDILLEGYIE” belongs “soluble”; to “LSNTRVQSRTAKVGYQAGVAINLKTSDYFSIRPEVLYNIMGGDTQYGDDEGNTKVLKNRYDYLSIPLNFVATFEAGPGKINVFVAPQFSLGLGGKYTSNTDSSAVGFFGVRRREDRSGTLQTSDVPDNYTGTNKYFNQINWGINYGVGYQVKGLLFTGQYHMGLSNNEPHYSNPDQEAHRGNVVTKNYGFTVGLTYFFGDTK”, “not soluble”; to “LTYLNYYGKEKPELVYTKIAQSSQQDAFNISKRSQKEMDKQKTWAMVLNQDGQIVQSYRLPQQLKRHYTNADMVKFSRWYLDDYPVFSYVRGQQILVFGYPKKYSLAKFNFYLNTQFIK”, “not soluble”.

Values taken from the DeepSol protein solubility set.
